For two substances, percent associated with microtubules, percent of transfected cells with increased microtubule acetylation and bundling and percent of transfected hTERT-RPE1 cells with a fibrillar localization pattern results are on record in patent publication US20160185832A1.

The target of test [1] is pure, pre-polymerized, taxol-stabilized microtubules of bovine tubulin (Cytoskeleton) (bovine) (UniProt P81947). Briefly: in vitro microtubule co-sedimentation, percent of construct in the microtubule pellet (FIG. 4D).
Test [2] addresses microtubule network of cultured human cells (hTERT-RPE1, 293T) (human) (UniProt P68363). Briefly: cell-based or functional assay.
Test [3] addresses microtubules polymerized in mouse brain homogenate (mouse) (UniProt P05213). Briefly: microtubule co-sedimentation from mouse brain homogenate, western blot (FIG. 6F). (In western blotting, separated proteins are transferred to a membrane and probed.)

A value given as a limit tells only on which side of the number the result lay.

microtubule network of cultured human cells (hTERT-RPE1, 293T) (human), sequence (P68363 whole entry, chain 1 of 2): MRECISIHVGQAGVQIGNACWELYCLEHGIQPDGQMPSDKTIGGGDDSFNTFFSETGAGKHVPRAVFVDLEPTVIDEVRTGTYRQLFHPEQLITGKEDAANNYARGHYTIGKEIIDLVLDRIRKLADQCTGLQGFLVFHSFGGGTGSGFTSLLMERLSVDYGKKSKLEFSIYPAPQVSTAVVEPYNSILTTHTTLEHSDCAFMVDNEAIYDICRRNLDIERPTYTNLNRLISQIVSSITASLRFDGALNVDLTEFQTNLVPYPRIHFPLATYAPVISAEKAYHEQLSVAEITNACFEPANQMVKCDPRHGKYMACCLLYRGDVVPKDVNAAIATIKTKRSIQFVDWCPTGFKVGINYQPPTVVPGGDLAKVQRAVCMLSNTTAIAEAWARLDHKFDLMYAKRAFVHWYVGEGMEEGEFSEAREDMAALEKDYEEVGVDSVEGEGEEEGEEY
microtubule network of cultured human cells (hTERT-RPE1, 293T) (human), sequence (P07437 whole entry, chain 2 of 2, further chain): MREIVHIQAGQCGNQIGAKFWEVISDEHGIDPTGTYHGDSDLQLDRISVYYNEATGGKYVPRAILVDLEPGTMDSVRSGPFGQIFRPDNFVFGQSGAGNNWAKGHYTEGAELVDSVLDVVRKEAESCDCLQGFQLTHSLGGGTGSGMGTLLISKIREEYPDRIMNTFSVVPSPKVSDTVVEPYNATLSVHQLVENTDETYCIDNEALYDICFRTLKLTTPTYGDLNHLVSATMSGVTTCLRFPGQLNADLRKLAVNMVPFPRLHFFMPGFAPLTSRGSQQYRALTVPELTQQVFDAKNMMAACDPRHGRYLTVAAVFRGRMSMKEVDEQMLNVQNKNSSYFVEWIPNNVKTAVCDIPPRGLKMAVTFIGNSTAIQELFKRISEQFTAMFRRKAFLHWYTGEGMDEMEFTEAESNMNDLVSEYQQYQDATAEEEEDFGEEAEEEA
pure, pre-polymerized, taxol-stabilized microtubules of bovine tubulin (Cytoskeleton) (bovine), sequence (P81947 whole entry, chain 1 of 2): as the sequence (P68363 whole entry, chain 1 of 2) above
pure, pre-polymerized, taxol-stabilized microtubules of bovine tubulin (Cytoskeleton) (bovine), sequence (Q6B856 whole entry, chain 2 of 2, further chain): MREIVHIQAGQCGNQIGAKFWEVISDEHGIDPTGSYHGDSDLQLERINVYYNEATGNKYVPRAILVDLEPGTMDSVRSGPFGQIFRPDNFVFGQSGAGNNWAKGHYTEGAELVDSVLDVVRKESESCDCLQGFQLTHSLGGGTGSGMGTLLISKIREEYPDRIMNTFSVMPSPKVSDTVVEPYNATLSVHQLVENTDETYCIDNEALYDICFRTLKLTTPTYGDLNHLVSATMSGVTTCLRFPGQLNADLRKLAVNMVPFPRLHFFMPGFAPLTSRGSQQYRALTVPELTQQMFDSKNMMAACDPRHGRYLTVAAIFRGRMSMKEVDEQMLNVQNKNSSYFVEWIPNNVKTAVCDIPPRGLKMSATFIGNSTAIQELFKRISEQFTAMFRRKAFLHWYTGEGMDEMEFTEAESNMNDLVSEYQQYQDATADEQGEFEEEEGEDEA
microtubules polymerized in mouse brain homogenate (mouse), sequence (P05213 whole entry, chain 1 of 2): as the sequence (P68363 whole entry, chain 1 of 2) above
microtubules polymerized in mouse brain homogenate (mouse), sequence (Q9CWF2 whole entry, chain 2 of 2, further chain): as the sequence (Q6B856 whole entry, chain 2 of 2, further chain) above

Take “GFP fusion of full length human CEP290 (aa 1-2479), O15078 1-2479”: the percent associated with microtubules in test [1] was less than 50%. In test [2], the percent of transfected cells with increased microtubule acetylation and bundling worked out at 40%; the percent of transfected hTERT-RPE1 cells with a fibrillar localization pattern was found to be 10%.

Consider “full length wild type (WT) mouse Cep290 from mouse brain homogenate, Q6A078 1-2472”, for which, in test [3], the percent associated with microtubules is 60%.
